This is an account of results in publication PMC10628450 (Frontiers in Immunology, 2023).

The experiment deals with T1, NKp46-His6 (Homo sapiens, UniProt O76036).
T1 construct: recombinant human NKp46 (natural cytotoxicity receptor); soluble recombinant receptor; probably the extracellular domain; also called (rh) NKp46; recombinant NKp46-His6; source: bought: AcroBiosystems
In words: BLI; antibodies loaded at 5 µg/ml on anti-human-Fc (AHC) or anti-human-CH1 (FAB2G) biosensors; antigen in solution (EGFR 3.125-200 nM; NKp46 and NKp30 1.6-100 nM) in kinetics buffer (PBS, 0.1% Tween-20, 1% BSA); 25°C; 1:1 binding model. To be noted: both partners purified.

T1 sequence (O76036 22-258): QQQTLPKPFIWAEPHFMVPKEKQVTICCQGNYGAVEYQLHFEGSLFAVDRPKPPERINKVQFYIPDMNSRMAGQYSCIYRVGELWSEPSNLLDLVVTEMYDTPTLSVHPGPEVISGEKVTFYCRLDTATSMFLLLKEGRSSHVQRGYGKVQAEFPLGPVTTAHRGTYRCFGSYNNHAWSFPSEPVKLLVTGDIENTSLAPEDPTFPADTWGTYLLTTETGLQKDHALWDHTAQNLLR

B1: Anti-NKp46 IgG (antibody, V domains shown)
VH: QVQLVQSGAEVKKPGSSVKVSCKASGYTFSDYVINWVRQAPGQGLEWMGEIYPGSGTNYYNEKFKAKATITADKSTSTAYMELSSLRSEDTAVYYCARRGRYGLYAMDYWGQGTTVTVSS
VL: DIQMTQSPSSLSASVGDRVTITCRASQDISNYLNWYQQKPGKAPKLLIYYTSRLHSGVPSRFSGSGSGTDFTFTISSLQPEDIATYFCQQGNTRPWTFGGGTKVEIK
notes: human IgG1 heavy chain constant region (CH1, hinge, CH2, CH3); numbers count on: EU numbering; IgG1 with LALA; also called parental monospecific anti-NKp46 antibody; anti-NKp46 LALA IgG; source: Expi293 cells, transiently transfected, purified (MabSelect); copies: 2 + 2
The molecule B1 had a Kd of 1 nM.

B2: Anti-NKp46_EF_F06 (bispecific antibody, V domains shown)
VH: B1 VH
VL: B1 VL
notes: human IgG1 heavy chain constant region from its start to the KLTV motif before the EF loop of CH3; numbers count on: EU numbering; Gly4Ser linker; anti-EGFR bovine knob F06 (from an ultralong CDR-H3); human IgG1 heavy chain constant region from the RWQQ motif after the EF loop of CH3 to its end; as the light chain of m1; IgG1 with LALA; DKS of the EF loop replaced by G4S-knob-G4S (results); …
For the molecule B2, binding was put at a Kd of 3 nM.

B3: Anti-NKp46_EF_H05 (bispecific antibody, V domains shown)
VH: B1 VH
VL: B1 VL
notes: human IgG1 heavy chain constant region from its start to the KLTV motif before the EF loop of CH3; numbers count on: EU numbering; Gly4Ser linker; anti-EGFR bovine knob H05 (from an ultralong CDR-H3); human IgG1 heavy chain constant region from the RWQQ motif after the EF loop of CH3 to its end; as the light chain of m1; IgG1 with LALA; DKS of the EF loop replaced by G4S-knob-G4S (results); …
Regarding B3, the Kd amounted to 3.6 nM. The Kd values of the last two molecules are within 1.5-fold of each other.

B4: Anti-NKp46_AB_H05 (bispecific antibody, V domains shown)
VH: B1 VH
VL: B1 VL
notes: human IgG1 heavy chain constant region from its start to the PPSR motif before the AB loop of CH3; numbers count on: EU numbering; Gly4Ser linker; anti-EGFR bovine knob H05 (from an ultralong CDR-H3); human IgG1 heavy chain constant region from the motif after the AB loop of CH3 (printed as NGVS) to its end; as the light chain of m1; IgG1 with LALA; EEMTK of the AB loop replaced by G4S-knob-G4S; …
B4 displayed a Kd of 3.4 nM.

B5: Anti-NKp46_AB_F06 (bispecific antibody, V domains shown)
VH: B1 VH
VL: B1 VL
notes: human IgG1 heavy chain constant region from its start to the PPSR motif before the AB loop of CH3; numbers count on: EU numbering; Gly4Ser linker; anti-EGFR bovine knob F06 (from an ultralong CDR-H3); human IgG1 heavy chain constant region from the motif after the AB loop of CH3 (printed as NGVS) to its end; as the light chain of m1; IgG1 with LALA; EEMTK of the AB loop replaced by G4S-knob-G4S; …
For the molecule B5, the Kd came out at 2 nM.
